Reference: patent US20230295305A1

Target: biotinylated pHLA: HLA subtype A*02:01 complexed with … (HLA-PEPTIDE target G8) (human)
Assay: MSD U-PLEX, periplasmic extract on biotinylated pHLA; ratio of target signal to OTLA signal

Average Target/OTLA: 1
Target/OTLA 61: 1
Target/OTLA 67: 2
Target/OTLA 246: 1
Target/OTLA 250: 1
Substance: Negative control (MSD screen)
